Common to all, as to test: western blot of recombinant protein
Assay [1] addresses T1, recombinant human CNAα wild type (unphosphorylated) (human, UniProt Q08209 1-521, limits assumed).
T1 construct: Co-expressed with the CNB1 subunit in E. coli and co-purified; run on denaturing gels for western blot; also called wild-type CNAα; WT CNAα
The method, then:
(§1) Levels of total CNAα were used as a loading control and were assessed after stripping of the membranes and incubation with anti-CNAα rabbit by chemiluminescence (bottom panel).

Assay [2] concerns the target T2, recombinant human CNAα S469E phosphomimetic mutant (human, UniProt Q08209 1-521, limits assumed).
T2 construct: Co-expressed with CNB1 in E. coli and co-purified; also called S469E CNAα; phosphomimic mutant S469E
The method, then:
as §1

The target of assay [3] is recombinant CNAα double mutant S462E/S469E (human, UniProt Q08209 1-521, limits assumed). As to the method: as §1

B1: monoclonal mouse anti-pS469 CNAα antibody (antibody, V domains shown)
VH: EVQLQQSGAELVRPGASVKLSCTASDFNIKDTYIHWLKQRPEQGLEWIGRIDPANSNPKYDPNFQGKATITTDTSSNTAYLQLSSLTSDDTAVYYCTRRDYYGSGSWFAYWGQGTLVTVSS
VL: DIVMTQAAPSVPVTPGESVSISCRSSKSLLHSNGNTYLYWFLQRPGQSPQLLIYRMSNLASGVPDRFSGSGSGTAFTLRINRVEAEDVGVYYCMQHLEYPLTFGAGTKLELK
notes: 7 and 9 are used; Mouse monoclonal; also called monoclonal mouse anti-S469 phosphospecific antibody; monoclonal murine anti-S469 CNAα phosphospecific antibody
Take B1: the binding result is reported as “no binding” in assay [1], “binds” in assay [2] and “binds” in assay [3].

For the origin of these results see patent publication US20200256880A1 (BROAD INSTITUTE, published 2020).
